# Test results from patent publication US10143754B2, “Method for peroral delivery of insulin and its analogues for therapeutic usage” (TRANSGENE BIOTEK LIMITED, priority 2011, dated 2018).
# How the values were obtained:
# [1] = acid pH; cited from earlier work
# [2] = tested on: Streptozotocin induced diabetic Wistar or Sprague Dawley rats; test: Modification of blood/serum glucose of diabetic rats; assay type: in vivo, rat; settings: IV administration, FIG. 1
# [3] = rat, in vivo, iv
Substance,solubility [1],duration of hypoglycemic effect [2],reduction of blood glucose levels [2],plasma insulin levels [3]
Insulin Glargine,soluble at acid pH,,,
Insulin Lispro,,short lived,rapid reduction of blood glucose levels,increased in accordance with the reduction in serum glucose levels but reduced rapidly
